According to the supplement of paper PMC10126150:
± gives the standard deviation of the averaged measurements.

tested on: ATP; test: switch fluorescence ratio, 500 uM ATP over buffer (Cy3 cluster intensity, sum of 5 cycles each) (fold (ratio)); higher = stronger signal-on switching upon ATP binding; sequences stand for … in TCGTCGGCAGCGTCAGATGTGTATAAGAGACAGTTTTTTTTTTTTTTTTTTTTTTTTT…TC; conditions: aptamer strand: ATP DNA aptamer (quencher-CACCTGGGGGAGTATTGCGGAGGAAGG + anchor), 100 nM annealed; ATP concentration: 500 uM
In short: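 For every switch-domain sequence, the fluorescence ratio is the mean of per-cluster values, each being summed target-cycle Cy3 intensity over summed buffer-cycle Cy3 intensity. Clusters outside 100-1000 RFU were excluded. On a modified Illumina MiSeq flow-cell, the Cy3-labelled switching-strand clusters were annealed to 100 nM quencher-labelled ATP aptamer, imaged in selection buffer and then after 15 min with 500 uM ATP at 22 °C. Five such cycles were run, with NaOH stripping and re-annealing between them.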
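Further: ATP exposure 15 min at 22 °C before imaging.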

Sequence | switch fluorescence ratio
TGTGGTATGC | 1.01 ± 0.057
TGTGGTGAGT | 0.963 ± 0.012
TGTGGTGGCG | 0.935 ± 0.018
TGTGGTTAGC | 1.01 ± 0.064
TGTGGTTCGA | 0.972 ± 0.011
TGTGGTTGGA | 1 ± 0.012
TGTGTATGAG | 0.986 ± 0.036
TGTGTATGCT | 0.9868 ± 0.0078
TGTGTCAATT | 0.9841 ± 0.0092
TGTGTCATGG | 0.986 ± 0.011
TGTGTCTATA | 0.97698 ± 0.00069
TGTGTGATAC | 1.549 ± 0.0055
TGTGTGCTGA | 1.02 ± 0.028
TGTGTGGGGT | 0.975 ± 0.021
TGTGTGGGTA | 0.95768 ± 0.00058
TGTGTGGTTT | 0.986 ± 0.036
TGTGTGTTAG | 0.985 ± 0.016
TGTGTTAGAG | 1.01 ± 0.019
TGTGTTTACC | 1.01 ± 0.043
TGTGTTTATT | 1.051 ± 0.008
TGTGTTTCGG | 0.9799 ± 0.0082
TGTGTTTTGG | 0.99 ± 0.027
TGTGTTTTT | 0.992 ± 0.038
TGTTAAGGGA | 1 ± 0.02
TGTTAATCAG | 0.98605 ± 0.00081

Sequence | switch fluorescence ratio
TGTTACACCT | 1.23 ± 0.025
TGTTAGGAGA | 1 ± 0.018
TGTTAGGGAG | 0.987 ± 0.03
TGTTAGGGAT | 1.01 ± 0.034
TGTTAGGGG | 1 ± 0.049
TGTTAGGGGT | 1 ± 0.075
TGTTAGTATT | 0.999 ± 0.019
TGTTAGTGGC | 1 ± 0.04
TGTTATAAAC | 1.02 ± 0.017
TGTTATAGG | 1.001 ± 0.0098
TGTTATAGGG | 1.03 ± 0.033
TGTTATATGC | 1 ± 0.019
TGTTATCGTT | 0.989 ± 0.018
TGTTATTAGT | 1.01 ± 0.022
TGTTCACTTT | 1.04 ± 0.036
TGTTCCGGAC | 1.023 ± 0.0058
TGTTCGGTCG | 1.005 ± 0.0014
TGTTCTAGGG | 1.01 ± 0.013
TGTTGAGGAA | 1.05 ± 0.053
TGTTGCAAGT | 0.976 ± 0.017
TGTTGCATCG | 1 ± 0.019
TGTTGCGGAT | 1.24 ± 0.29
TGTTGCGGGT | 1.01 ± 0.042
TGTTGGCGCG | 0.989 ± 0.053
TGTTGGGCCC | 1 ± 0.018

Sequence | switch fluorescence ratio
TGTTGGGCGG | 0.969 ± 0.026
TGTTGGGGAG | 0.972 ± 0.025
TGTTGGGGTG | 0.997 ± 0.045
TGTTGGGTGT | 1.01 ± 0.031
TGTTGGTAAA | 1.02 ± 0.024
TGTTGGTGTA | 0.994 ± 0.01
TGTTGGTTTG | 1.08 ± 0.14
TGTTGGTTTT | 1.02 ± 0.027
TGTTGTAGCG | 0.975 ± 0.037
TGTTGTAGGA | 0.997 ± 0.015
TGTTGTGAGG | 0.997 ± 0.025
TGTTGTTAAT | 0.999 ± 0.019
TGTTGTTATT | 1.018 ± 0.0091
TGTTGTTTTT | 0.991 ± 0.037
TGTTTAAATA | 1.033 ± 0.0035
TGTTTAACAG | 1.03 ± 0.05
TGTTTATTGA | 0.989 ± 0.013
TGTTTCCGGT | 1.44 ± 0.59
TGTTTCGTTT | 1 ± 0.055
TGTTTCTGG | 0.996 ± 0.036
TGTTTCTTGA | 1.01 ± 0.058
TGTTTGAATG | 0.9585 ± 0.0029
TGTTTGAGG | 0.9559 ± 0.009
TGTTTGATTT | 0.975 ± 0.019
TGTTTGGGGC | 0.989 ± 0.019

Sequence | switch fluorescence ratio
TGTTTGTATT | 0.955 ± 0.03
TGTTTGTGAA | 0.9815 ± 0.0032
TGTTTGTGGT | 0.987 ± 0.023
TGTTTTAAGC | 1.03 ± 0.022
TGTTTTAGAC | 0.997 ± 0.035
TGTTTTCCCC | 1.02 ± 0.028
TGTTTTCGTG | 0.985 ± 0.015
TGTTTTGAAT | 1.006 ± 0.0096
TGTTTTGTAG | 1 ± 0.015
TGTTTTTAAC | 0.983 ± 0.015
TGTTTTTACC | 1.03 ± 0.059
TGTTTTTATC | 0.992 ± 0.013
TGTTTTTCTT | 1.01 ± 0.033
TGTTTTTTGG | 0.991 ± 0.033
TGTTTTTTGT | 0.992 ± 0.034
TTAAAAAGAG | 0.999 ± 0.042
TTAAAAAGGG | 0.995 ± 0.029
TTAAAAGAGC | 1.02 ± 0.035
TTAAAAGTTA | 1.03 ± 0.044
TTAAAATATT | 0.993 ± 0.023
TTAAAATGAG | 0.9972 ± 0.006
TTAAACGC | 1.03 ± 0.012
TTAAACGGAG | 1.034 ± 0.0052
TTAAACGTGT | 1.04 ± 0.03
TTAAACGTTA | 1.32 ± 0.44
